The values that follow come from patent publication US20250215104A1 (published 2025).

Where only a bound is given, the exact number is not on record here.

This experiment concerns the target human suPAR (hsuPAR) recombinant protein (human, UniProt Q03405 23-303). Description: BLI; avid. (In general: BLI is a label-free optical method that tracks binding on a fibre tip over time.)

human suPAR (hsuPAR) recombinant protein, sequence (Q03405 23-303): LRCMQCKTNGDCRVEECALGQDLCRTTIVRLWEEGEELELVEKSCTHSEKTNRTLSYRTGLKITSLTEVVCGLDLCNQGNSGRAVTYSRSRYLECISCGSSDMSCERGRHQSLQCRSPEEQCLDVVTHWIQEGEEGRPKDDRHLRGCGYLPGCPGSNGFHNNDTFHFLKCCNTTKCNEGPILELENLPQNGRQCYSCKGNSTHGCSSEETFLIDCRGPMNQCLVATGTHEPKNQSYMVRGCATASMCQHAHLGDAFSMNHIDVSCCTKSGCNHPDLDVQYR

B1: WAb0014 (antibody, V domains shown)
VH: QVQLVQSGAEVKKPGASVKVSCKASGYTFTNYYMHWVRQAPGQGLEWMGWIDHESGSTIYAQKFQGRVTMTRDTSTSTVYMELSSLRSEDTAVYYCARGYDVDWFVYWGQGTLVTVSS
VL: DIQMTQSPSSLSASVGDRVTITCSARQSVSYMYWYQQKPGKAPKLLIYRTSNLASGVPSRFSGSGSGTDFTLTISSLQPEDFATYYCQQYHSYPPTFGGGTKVEIKR
Turning to B1, the Kd was < 1 pM.

A word on the Kd: it is the equilibrium constant for the complex coming apart.
